Source: US10967068B2, “Stability-modulating linkers for use with antibody drug conjugates” (priority 2014, dated 2021)
*1 amine or outer side, *2 acyl side, *3 side chain or, on linkers, in order; H or OH if unused. Where a SMILES comes first, the peptide text is derived from it. [ ]: non-standard residue; d: D form. The star is where a group is joined. Dolaproine = CO[C@@H]([C@@H]1CCCN1)[C@@H](C)C(=O)O; Dil = CC[C@H](C)[C@H](NC)[C@@H](CC(=O)O)OC; Benzenesulfonyl = O=S(=O)(c1ccccc1)*; PABC = O=C(OCc1ccc(N[*:1])cc1)[*:2]; Doe = c1ccc(C[C@H](N*)c2nccs2)cc1; Glyceroyl(2S) = O=C([C@@H](O)CO)*; Cit = NC(=O)NCCC[C@H](N)C(=O)O; Propanoyl(3-OH) = O=C(CCO)*; dLac = C[C@@H](O)C(=O)O; Lac = C[C@H](O)C(=O)O; Aib = CC(C)(N)C(=O)O; Ms = CS(=O)(=O)*

Assay: In Vitro Stability Assay—Mouse Plasma
Assay type: in vitro ADME
Conditions: for DAR: before plasma incubation
[1] = attachment position L11B, % DAR remaining after plasma 3 or 4.5 days
[2] = Trop-2 antibody attachment position TG6, HIC or mass spectrometry
[3] = attachment position TG6, % DAR remaining after incubation in plasma for 3 or 4.5 days
[4] = attachment position TG6, plasma species not printed in table (values match mouse plasma, Table 4)

Procedure: 100-200 ug of ADC were incubated in mouse plasma (provided by Bioreclamation) supplemented with 1×PBS to the final ADC concentration of 0.125 mg/mL. Following incubation for 3-7 days, samples were diluted with an equal volume of 1×PBS, and ADCs were isolated using Trop2 antigen coupled to CNBr-activated Sepharose (GE Healthcare) using standard protocols. Drug-antibody ratios were assessed before and after in vitro exposure using HIC methods and mass spectrometry.
DAR values for conjugates purified after plasma incubation were compared to DAR values prior to plasma treatment.

Row | SMILES | DAR after plasma incubation for 3 to 4.5 days (attachment position L11B) | Conjugate stability (%) [1] [%] | DAR (attachment position L11B) | DAR [2] | Conjugate stability (%) [3] [%] | DAR after plasma incubation for 3 to 4.5 days [4]
1 | CC[C@H](C)[C@@H]([C@@H](CC(=O)N1CCC[C@H]1[C@H](OC)[C@@H](C)C(=O)N[C@@H](Cc1ccccc1)c1nccs1)OC)N(C)C(=O)[C@@H](NC(=O)C(C)(C)NC(=O)OCc1ccc(NC(=O)[C@H](CCCNC(N)=O)NC(=O)[C@@H](NC(=O)[C@H](CCCCN)NC(=O)CNC(C)=O)C(C)C)cc1)C(C)C [Example 37, N-acetylglycyl-L-lysyl-L-valyl-N-{4-[(8S,11S,12R)-11-[(2S)-butan-2-yl]-12-(2-{(2S)-2-[(1R,2R)-1-methoxy-2-methyl-3-oxo-3-{[(1S)-2-phenyl-1-(1,3-thiazol-2-yl)ethyl]amino}propyl]pyrrolidin-1-yl}-2-oxoethyl)-5,5,10-trimethyl-3,6,9-trioxo-8-(propan-2-yl)-2,13-dioxa-4,7,10-triazatetradec-1-yl]phenyl}-N˜5˜-carbamoyl-L-ornithinamide] (Ac-GKV[Cit][PABC][Aib]V[Dil][Dolaproine]-Doe) | 0.85 | 44 | 1.94 | – | – | –
2 | CC[C@H](C)[C@@H]([C@@H](CC(=O)N1CCC[C@H]1[C@H](OC)[C@@H](C)C(=O)N[C@@H](Cc1ccccc1)c1nccs1)OC)N(C)C(=O)[C@@H](NC(=O)C(C)(C)NC(=O)OCc1ccc(NC(=O)[C@H](CCCNC(N)=O)NC(=O)[C@@H](NC(=O)[C@H](CCCCN)NC(=O)[C@@H](N)CO)C(C)C)cc1)C(C)C [Example 38, L-seryl-L-lysylvalyl-N-{4-[(8S,11S,12R)-11-[(2S)-butan-2-yl]-12-(2-{(2S)-2-[(1R,2R)-1-methoxy-2-methyl-3-oxo-3-{[(1S)-2-phenyl-1-(1,3-thiazol-2-yl)ethyl]amino}propyl]pyrrolidin-1-yl}-2-oxoethyl)-5,5,10-trimethyl-3,6,9-trioxo-8-(propan-2-yl)-2,13-dioxa-4,7,10-triazatetradec-1-yl]phenyl}-N˜5˜-carbamoyl-L-ornithinamide] (H-SKV[Cit][PABC][Aib]V[Dil][Dolaproine]-Doe) | 1.32 | 90 | 1.47 | – | – | –
3 | CC[C@H](C)[C@@H]([C@@H](CC(=O)N1CCC[C@H]1[C@H](OC)[C@@H](C)C(=O)N[C@@H](Cc1ccccc1)c1nccs1)OC)N(C)C(=O)[C@@H](NC(=O)C(C)(C)NC(=O)OCc1ccc(NC(=O)[C@H](CCCNC(N)=O)NC(=O)[C@@H](NC(=O)[C@H](CCCCN)NC(=O)[C@H](N)CO)C(C)C)cc1)C(C)C [Example 39, D-seryl-L-lysylvalyl-N-{4-[(8S,11S,12R)-11-[(2S)-butan-2-yl]-12-(2-{(2S)-2-[(1R,2R)-1-methoxy-2-methyl-3-oxo-3-{[(1S)-2-phenyl-1-(1,3-thiazol-2-yl)ethyl]amino}propyl]pyrrolidin-1-yl}-2-oxoethyl)-5,5,10-trimethyl-3,6,9-trioxo-8-(propan-2-yl)-2,13-dioxa-4,7,10-triazatetradec-1-yl]phenyl}-N˜5˜-carbamoyl-L-ornithinamide] (H-[dS]KV[Cit][PABC][Aib]V[Dil][Dolaproine]-Doe) | 1.53 | 82 | 1.87 | – | – | –
4 | CC[C@H](C)[C@@H]([C@@H](CC(=O)N1CCC[C@H]1[C@H](OC)[C@@H](C)C(=O)N[C@@H](Cc1ccccc1)c1nccs1)OC)N(C)C(=O)[C@@H](NC(=O)C(C)(C)NC(=O)OCc1ccc(NC(=O)[C@H](CCCNC(N)=O)NC(=O)[C@@H](NC(=O)[C@H](CCCCN)NC(=O)[C@H](C)O)C(C)C)cc1)C(C)C [Example 40, N˜2˜-[(2S)-2-hydroxypropanoyl]-L-lysylvalyl-N-{4-[(8S,11S,12R)-11-[(2S)-butan-2-yl]-12-(2-{(2S)-2-[(1R,2R)-1-methoxy-2-methyl-3-oxo-3-{[(1S)-2-phenyl-1-(1,3-thiazol-2-yl)ethyl]amino}propyl]pyrrolidin-1-yl}-2-oxoethyl)-5,5,10-trimethyl-3,6,9-trioxo-8-(propan-2-yl)-2,13-dioxa-4,7,10-triazatetradec-1-yl]phenyl}-N˜5˜-carbamoyl-L-ornithinamide] (H-[Lac]KV[Cit][PABC][Aib]V[Dil][Dolaproine]-Doe) | 1.08 | 58 | 1.87 | – | – | –
5 | CC[C@H](C)[C@@H]([C@@H](CC(=O)N1CCC[C@H]1[C@H](OC)[C@@H](C)C(=O)N[C@@H](Cc1ccccc1)c1nccs1)OC)N(C)C(=O)[C@@H](NC(=O)C(C)(C)NC(=O)OCc1ccc(NC(=O)[C@H](CCCNC(N)=O)NC(=O)[C@@H](NC(=O)[C@H](CCCCN)NC(=O)[C@@H](C)O)C(C)C)cc1)C(C)C [Example 41, N˜2˜-[(2R)-2-hydroxypropanoyl]-L-lysylvalyl-N-{4-[(8S,11S,12R)-11-[(2S)-butan-2-yl]-12-(2-{(2S)-2-[(1R,2R)-1-methoxy-2-methyl-3-oxo-3-{[(1S)-2-phenyl-1-(1,3-thiazol-2-yl)ethyl]amino}propyl]pyrrolidin-1-yl}-2-oxoethyl)-5,5,10-trimethyl-3,6,9-trioxo-8-(propan-2-yl)-2,13-dioxa-4,7,10-triazatetradec-1-yl]phenyl}-N˜5˜-carbamoyl-L-ornithinamide] (H-[dLac]KV[Cit][PABC][Aib]V[Dil][Dolaproine]-Doe) | 0.91 | 49 | 1.86 | – | – | –
6 | CC[C@H](C)[C@@H]([C@@H](CC(=O)N1CCC[C@H]1[C@H](OC)[C@@H](C)C(=O)N[C@@H](Cc1ccccc1)c1nccs1)OC)N(C)C(=O)[C@@H](NC(=O)C(C)(C)NC(=O)OCc1ccc(NC(=O)[C@H](CCCNC(N)=O)NC(=O)[C@@H](NC(=O)[C@H](CCCCN)NC(=O)[C@@H](O)CO)C(C)C)cc1)C(C)C [Example 42, N˜2˜-[(2S)-2,3-dihydroxypropanoyl]-L-lysylvalyl-N-{4-[(8S,11S,12R)-11-[(2S)-butan-2-yl]-12-(2-{(2S)-2-[(1R,2R)-1-methoxy-2-methyl-3-oxo-3-{[(1S)-2-phenyl-1-(1,3-thiazol-2-yl)ethyl]amino}propyl]pyrrolidin-1-yl}-2-oxoethyl)-5,5,10-trimethyl-3,6,9-trioxo-8-(propan-2-yl)-2,13-dioxa-4,7,10-triazatetradec-1-yl]phenyl}-N˜5˜-carbamoyl-L-ornithinamide] ({Glyceroyl(2S)}-KV[Cit][PABC][Aib]V[Dil][Dolaproine]-Doe) | 1.60 | 85 | 1.87 | – | – | –
7 | CC[C@H](C)[C@@H]([C@@H](CC(=O)N1CCC[C@H]1[C@H](OC)[C@@H](C)C(=O)N[C@@H](Cc1ccccc1)c1nccs1)OC)N(C)C(=O)[C@@H](NC(=O)C(C)(C)NC(=O)OCc1ccc(NC(=O)[C@H](CCCNC(N)=O)NC(=O)[C@@H](NC(=O)[C@H](CCCCN)NC(=O)CCO)C(C)C)cc1)C(C)C [Example 43, N˜2˜-(3-hydroxypropanoyl)-L-lysylvalyl-N-{4-[(8S,11S,12R)-11-[(2S)-butan-2-yl]-12-(2-{(2S)-2-[(1R,2R)-1-methoxy-2-methyl-3-oxo-3-{[(1S)-2-phenyl-1-(1,3-thiazol-2-yl)ethyl]amino}propyl]pyrrolidin-1-yl}-2-oxoethyl)-5,5,10-trimethyl-3,6,9-trioxo-8-(propan-2-yl)-2,13-dioxa-4,7,10-triazatetradec-1-yl]phenyl}-N˜5˜-carbamoyl-L-ornithinamide] ({Propanoyl(3-OH)}-KV[Cit][PABC][Aib]V[Dil][Dolaproine]-Doe) | 1.23 | 76 | 1.62 | – | – | –
8 | CC[C@H](C)[C@@H]([C@@H](CC(=O)N1CCC[C@H]1[C@H](OC)[C@@H](C)C(=O)N[C@@H](Cc1ccccc1)c1nccs1)OC)N(C)C(=O)[C@@H](NC(=O)C(C)(C)NC(=O)OCc1ccc(NC(=O)[C@H](CCCNC(N)=O)NC(=O)[C@@H](NC(=O)[C@H](CCCCN)NS(C)(=O)=O)C(C)C)cc1)C(C)C [Example 44, N˜2˜-(methylsulfonyl)lysyl-L-valyl-N-{4-[(8S,11S,12R)-11-[(2S)-butan-2-yl]-12-(2-{(2S)-2-[(1R,2R)-1-methoxy-2-methyl-3-oxo-3-{[(1S)-2-phenyl-1-(1,3-thiazol-2-yl)ethyl]amino}propyl]pyrrolidin-1-yl}-2-oxoethyl)-5,5,10-trimethyl-3,6,9-trioxo-8-(propan-2-yl)-2,13-dioxa-4,7,10-triazatetradec-1-yl]phenyl}-N˜5˜-carbamoylornithinamide] (Ms-KV[Cit][PABC][Aib]V[Dil][Dolaproine]-Doe) | 0.25 | 17 | 1.50 | 1.74 | 47 | 0.82
9 | CC[C@H](C)[C@@H]([C@@H](CC(=O)N1CCC[C@H]1[C@H](OC)[C@@H](C)C(=O)N[C@@H](Cc1ccccc1)c1nccs1)OC)N(C)C(=O)[C@@H](NC(=O)C(C)(C)NC(=O)OCc1ccc(NC(=O)[C@H](CCCNC(N)=O)NC(=O)[C@@H](NC(=O)[C@H](CCCCN)NS(=O)(=O)c2ccccc2)C(C)C)cc1)C(C)C [Example 45, N˜2˜-(phenylsulfonyl)lysyl-L-valyl-N-{4-[(8S,11S,12R)-11-[(2S)-butan-2-yl]-12-(2-{(2S)-2-[(1R,2R)-1-methoxy-2-methyl-3-oxo-3-{[(1S)-2-phenyl-1-(1,3-thiazol-2-yl)ethyl]amino}propyl]pyrrolidin-1-yl}-2-oxoethyl)-5,5,10-trimethyl-3,6,9-trioxo-8-(propan-2-yl)-2,13-dioxa-4,7,10-triazatetradec-1-yl]phenyl}-N˜5˜-carbamoylornithinamide] (Benzenesulfonyl-KV[Cit][PABC][Aib]V[Dil][Dolaproine]-Doe) | 0 | 0 | 0.66 | 1.42 | 3 | 0.04
